Drawing on patent US20080175847A1 (Genentech, published 2008), this text covers Kd, koff and kon for four molecules.

Experiment [1] deals with T1, His-tagged murine DLL4 (murine, UniProt Q9JI71 27-405, limits assumed).
T1 construct: domain: ECD5.5; also called murine DLL4-His; murine Delta4 (ECD5.5); not shown: His tag
The experiment in a line: SPR BIAcore-3000, antibody coupled to CM5 chip, DLL4-His injected, 25 C. The protocol: (§1) To determine the binding affinity of the anti-DLL4 Mabs, surface plasmon resonance (SRP) measurement with a BIAcore™-3000 was used (BIAcore, Inc., Piscataway, N.J.). Briefly, carboxymethylated dextran biosensor chips (CM5, BIAcore Inc.) were activated with N-ethyl-N′-(3-dimethylaminopropyl)-carbodiimide hydrochloride (EDC) and N-hydroxysuccinimide (NHS) according to the supplier's instructions. […] Next, IM ethanolamine was injected to block unreacted groups. […] Association rates (kon) and dissociation rates (koff) were calculated using a simple one-to-one Langmuir binding model (BIAcore Evaluation Software version 3.2). The equilibrium dissociation constant (Kd) was calculated as the ratio koff/kon.
A general note: Surface plasmon resonance follows binding to a sensor surface in real time, without labels.

The target of experiment [2] is T2, C-terminal His-tagged human DLL4 (amino acid 1-404) (human, UniProt Q9NR61 26-404).
T2 construct: range 26-404; the text calls it human DLL4-His; also called DLL4-His; human DLL4-His; not shown: C-terminal His tag
T2 sequence (Q9NR61 26-404 limits assumed): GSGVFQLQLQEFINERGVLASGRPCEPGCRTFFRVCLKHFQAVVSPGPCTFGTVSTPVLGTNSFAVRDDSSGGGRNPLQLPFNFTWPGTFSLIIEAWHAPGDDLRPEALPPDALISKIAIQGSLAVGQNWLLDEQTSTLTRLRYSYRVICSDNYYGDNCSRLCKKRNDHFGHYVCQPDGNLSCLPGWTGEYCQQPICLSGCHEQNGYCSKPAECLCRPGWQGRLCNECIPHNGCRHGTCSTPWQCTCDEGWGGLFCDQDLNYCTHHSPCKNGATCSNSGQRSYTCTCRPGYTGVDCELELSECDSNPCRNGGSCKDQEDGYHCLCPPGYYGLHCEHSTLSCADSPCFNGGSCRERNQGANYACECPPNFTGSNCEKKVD
The experiment is described as above. The protocol: as §1

T1 sequence (Q9JI71 27-405 limits assumed): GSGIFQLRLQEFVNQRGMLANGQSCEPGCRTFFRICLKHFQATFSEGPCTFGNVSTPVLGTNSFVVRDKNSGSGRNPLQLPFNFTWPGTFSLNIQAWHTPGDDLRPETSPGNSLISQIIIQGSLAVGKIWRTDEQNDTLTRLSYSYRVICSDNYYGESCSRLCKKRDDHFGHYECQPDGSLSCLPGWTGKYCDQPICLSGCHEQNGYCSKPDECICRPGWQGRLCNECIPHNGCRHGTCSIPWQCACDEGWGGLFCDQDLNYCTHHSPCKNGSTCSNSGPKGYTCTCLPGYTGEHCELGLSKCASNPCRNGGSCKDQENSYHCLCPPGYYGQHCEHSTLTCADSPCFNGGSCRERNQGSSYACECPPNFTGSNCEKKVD

B1: YW26 (antibody, V domains shown)
VH: EVQLVESGGGLVQPGGSLRLSCAASGFTFTDNWISWVRQAPGKGLEWVGVINPNSGSTDYADSVKGRFTISADTSKNTAYLQMNSLRAEDTAVYYCARDNFGGYFDYWGQGTLVTVSS
VL: DIQMTQSPSSLSASVGDRVTITCRASQDVSTAVAWYQQKPGKAPKLLIYSASFLYSGVPSRFSGSGSGTDFTLTISSLQPEDFATYYCQQSYTTPPTFGQGTKVEIK
notes: Only the six HVRs are tied to the clone; also called clone 152.26; anti-DLL4 antibody
A word on the Kd: it is the free concentration of one partner at which half of the binding sites on the other are occupied at equilibrium, for simple one-to-one binding. Read a low Kd as higher affinity. For orientation: koff means a measure of how fast the partners let go of each other. The low end stands for slow dissociation, the high end for fast dissociation. A word on the kon: it is the rate constant with which the complex forms. As to B1, in experiment [1], the Kd was 28 nM, the koff is 0.0016 s⁻¹ and the kon turned out to be 57000 M⁻¹ s⁻¹. In experiment [2], this molecule yielded a Kd of 25 nM, a koff of 0.00074 s⁻¹ and a kon of 30000 M⁻¹ s⁻¹.

B2: YW26.34 (antibody, V domains shown)
VH: EVQLVESGGGLVQPGGSLRLSCAASGFTFTDNWISWVRQAPGKGLEWVGLINPTSGSTIYADSVKGRFTISADTSKNTAYLQMNSLRAEDTAVYYCARDNFGGYFDYWGQGTLVTVSS
VL: DIQMTQSPSSLSASVGDRVTITCRASQDVSTAVAWYQQKPGKAPKLLIYSASFLYSGVPSRFSGSGSGTDFTLTISSLQPEDFATYYCQQSYTGPSTFGQGTKVEIK
notes: Only the six HVRs are tied to the clone; also called clone 152.26.34
As to B2, in experiment [1], binding was characterised by a dissociation constant (Kd) of 0.18 nM, the off-rate (koff) came out at 6.5e-05 s⁻¹ and the kon came out at 360000 M⁻¹ s⁻¹. In experiment [2], the Kd turned out to be 0.35 nM, the koff stood at 6.7e-05 s⁻¹ and the association rate constant (kon) was 190000 M⁻¹ s⁻¹.

B3: YW26.14 (antibody, V domains shown)
VH: EVQLVESGGGLVQPGGSLRLSCAASGFSFRDNWISWVRQAPGKGLEWVGVINPNSGSTDYADSVKGRFTISADTSKNTAYLQMNSLRAEDTAVYYCARDNFGGYFDYWGQGTLVTVSS
VL: DIQMTQSPSSLSASVGDRVTITCRASQDVSTAVAWYQQKPGKAPKLLIYSASFLYSGVPSRFSGSGSGTDFTLTISSLQPEDFATYYCQQSVNGPATFGQGTKVEIK
notes: also called clone 152.26.14
In experiment [1], B3 showed a Kd of 0.22 nM, a koff of 7.3e-05 s⁻¹ and a kon of 330000 M⁻¹ s⁻¹. In experiment [2], this molecule came in with a Kd of 0.37 nM, a koff of 6.6e-05 s⁻¹ and a kon of 180000 M⁻¹ s⁻¹.

B4: YW26.6 (antibody, V domains shown)
VH: EVQLVESGGGLVQPGGSLRLSCAASGFTFTDNWISWVRQAPGKGLEWVGLINPQSGSSDYADSVKGRFTISADTSKNTAYLQMNSLRAEDTAVYYCARDNFGGYFDYWGQGTLVTVSS
VL: DIQMTQSPSSLSASVGDRVTITCRASQDVSTAVAWYQQKPGKAPKLLIYSASFLYSGVPSRFSGSGSGTDFTLTISSLQPEDFATYYCQQSYTGQSTFGQGTKVEIK
notes: Only the six HVRs are tied to the clone; also called clone 152.26.6
B4 came in with a Kd in experiment [2] of 0.25 nM.
